Laboratory results from US20180353525A1 (SOCPRA SCIENCES SANT ET HUMAINES S E C, published 2018).

Experiments:
[1] = target: T1, receptor for activated C kinase (RACK1), endogenous, HT-1080 cells (human, UniProt P63244 1-317); test: cell-based or functional assay
[2] = target: T1, receptor for activated C kinase …; test: cell-based or functional assay; remark: listed apart in the source

Binder	IC50 of doxorubicin, HT1080, MTT viability, C2 0.25 µM, 1% O2 (Experiment 2) [1]	IC50 of doxorubicin, HT1080, MTT viability, C2 0.25 µM, 21% O2 (Experiment 2) [1]	IC50 of doxorubicin, HT1080, MTT viability, C2 20.0 µM, 1% O2 (Experiment 2) [1]	IC50 of doxorubicin, HT1080, MTT viability, C2 20.0 µM, 21% O2 (Experiment 2) [1]	IC50 of doxorubicin, HT1080, MTT viability, C2 0.25 µM, 1% O2 (Experiment 1) [2]	IC50 of doxorubicin, HT1080, MTT viability, C2 0.25 µM, 21% O2 (Experiment 1) [2]	IC50 of doxorubicin, HT1080, MTT viability, C2 5.00 µM, 1% O2 (Experiment 1) [2]	IC50 of doxorubicin, HT1080, MTT viability, C2 5.00 µM, 21% O2 (Experiment 1) [2]	IC50 of doxorubicin, HT1080, MTT viability, C2WY→AA 0.25 µM, 1% O2 (Experiment 2) [1]	IC50 of doxorubicin, HT1080, MTT viability, C2WY→AA 0.25 µM, 21% O2 (Experiment 2) [1]	IC50 of doxorubicin, HT1080, MTT viability, C2WY→AA 20.0 µM, 1% O2 (Experiment 2) [1]	IC50 of doxorubicin, HT1080, MTT viability, C2WY→AA 20.0 µM, 21% O2 (Experiment 2) [1]	IC50 of doxorubicin, HT1080, MTT viability, C2WY→AA 0.25 µM, 1% O2 (Experiment 1) [2]	IC50 of doxorubicin, HT1080, MTT viability, C2WY→AA 0.25 µM, 21% O2 (Experiment 1) [2]	IC50 of doxorubicin, HT1080, MTT viability, C2WY→AA 5.00 µM, 1% O2 (Experiment 1) [2]	IC50 of doxorubicin, HT1080, MTT viability, C2WY→AA 5.00 µM, 21% O2 (Experiment 1) [2]
RMWYNFDHNY [C2 peptide (RMWYNFDHNY)]	0.0306 µM	0.0117 µM	0.0157 µM	0.01 µM	0.0397 µM	0.0122 µM	0.0391 µM	0.0172 µM	–	–	–	–	–	–	–	–
RMAANFDHNY [C2WY→AA peptide (RMAANFDHNY)]	–	–	–	–	–	–	–	–	0.0989 µM	0.0125 µM	0.0743 µM	0.0109 µM	0.0991 µM	0.0213 µM	0.0764 µM	0.0164 µM
